From patent US20120093810A1 (EVEC, published 2012)
Numbering of substitutions follows the chain as printed. In names and notes the source's numbering stands. No end group written: not given here. cellulose membrane = not defined here

How the values were obtained:
[1] = molecular target: T1, glycoprotein gB of human cytomegalovirus (HCMV) AD169 strain (human cytomegalovirus, AD169 strain, UniProt P06473 32-906); assay: cell-based or functional assay
[2] = molecular target: glycoprotein gB of clinically isolated HCMV strain MDU-1 (human cytomegalovirus, clinical isolate …, UniProt P08195); assay: cell-based or functional assay
Chain of glycoprotein gB of clinically isolated HCMV strain MDU-1 (P08195 102-630): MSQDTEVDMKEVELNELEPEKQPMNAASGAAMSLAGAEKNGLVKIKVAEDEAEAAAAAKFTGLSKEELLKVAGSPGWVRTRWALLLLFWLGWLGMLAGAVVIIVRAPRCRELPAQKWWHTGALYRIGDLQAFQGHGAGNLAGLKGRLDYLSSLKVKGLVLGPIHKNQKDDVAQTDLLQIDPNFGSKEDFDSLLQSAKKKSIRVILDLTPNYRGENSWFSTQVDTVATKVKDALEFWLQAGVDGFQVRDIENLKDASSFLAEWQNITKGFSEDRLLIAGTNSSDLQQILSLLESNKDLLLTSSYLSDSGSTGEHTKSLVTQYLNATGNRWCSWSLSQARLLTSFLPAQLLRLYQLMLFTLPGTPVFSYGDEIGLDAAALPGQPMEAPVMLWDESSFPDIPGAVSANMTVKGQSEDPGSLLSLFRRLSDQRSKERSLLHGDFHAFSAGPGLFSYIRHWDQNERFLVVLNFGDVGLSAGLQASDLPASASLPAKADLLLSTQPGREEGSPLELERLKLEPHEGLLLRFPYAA

[3] = molecular target: glycoprotein gB of clinically isolated HCMV strain T-137 (human cytomegalovirus, clinical isolate …); assay: cell-based or functional assay
[4] = molecular target: glycoprotein gB of HCMV laboratory strain Davis (human cytomegalovirus, Davis strain); assay: cell-based or functional assay
[5] = molecular target: glycoprotein gB of HCMV laboratory strain Merlin (human cytomegalovirus, Merlin strain, UniProt F5HB53 25-907); assay: cell-based or functional assay
Chain of glycoprotein gB of HCMV laboratory strain Merlin (F5HB53 25-907 limits assumed): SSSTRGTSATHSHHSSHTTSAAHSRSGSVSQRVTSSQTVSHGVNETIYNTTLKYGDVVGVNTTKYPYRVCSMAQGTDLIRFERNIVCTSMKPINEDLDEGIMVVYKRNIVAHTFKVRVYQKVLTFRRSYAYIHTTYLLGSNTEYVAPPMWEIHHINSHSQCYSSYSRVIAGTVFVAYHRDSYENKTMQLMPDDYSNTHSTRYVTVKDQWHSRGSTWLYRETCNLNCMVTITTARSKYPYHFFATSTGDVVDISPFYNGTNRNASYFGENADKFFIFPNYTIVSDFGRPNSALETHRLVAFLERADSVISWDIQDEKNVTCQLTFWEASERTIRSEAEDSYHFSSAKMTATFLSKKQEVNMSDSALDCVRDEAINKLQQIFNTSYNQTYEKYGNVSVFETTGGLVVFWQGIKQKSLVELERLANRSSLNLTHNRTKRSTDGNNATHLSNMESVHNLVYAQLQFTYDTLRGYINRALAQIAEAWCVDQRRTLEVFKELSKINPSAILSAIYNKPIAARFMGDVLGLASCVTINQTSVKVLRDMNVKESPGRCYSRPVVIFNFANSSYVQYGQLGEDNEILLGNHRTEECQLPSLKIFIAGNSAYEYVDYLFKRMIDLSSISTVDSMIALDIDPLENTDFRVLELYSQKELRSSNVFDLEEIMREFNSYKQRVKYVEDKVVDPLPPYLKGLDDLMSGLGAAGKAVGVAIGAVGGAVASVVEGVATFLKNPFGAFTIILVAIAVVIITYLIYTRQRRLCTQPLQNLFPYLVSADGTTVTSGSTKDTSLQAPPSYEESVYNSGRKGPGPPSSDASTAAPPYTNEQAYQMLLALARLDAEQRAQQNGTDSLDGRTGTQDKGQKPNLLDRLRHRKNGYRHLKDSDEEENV

[6] = molecular target: glycoprotein gB of HCMV laboratory strain Towne (human cytomegalovirus, Towne strain, UniProt P13201 23-907); assay: cell-based or functional assay
Chain of glycoprotein gB of HCMV laboratory strain Towne (P13201 23-907 limits assumed): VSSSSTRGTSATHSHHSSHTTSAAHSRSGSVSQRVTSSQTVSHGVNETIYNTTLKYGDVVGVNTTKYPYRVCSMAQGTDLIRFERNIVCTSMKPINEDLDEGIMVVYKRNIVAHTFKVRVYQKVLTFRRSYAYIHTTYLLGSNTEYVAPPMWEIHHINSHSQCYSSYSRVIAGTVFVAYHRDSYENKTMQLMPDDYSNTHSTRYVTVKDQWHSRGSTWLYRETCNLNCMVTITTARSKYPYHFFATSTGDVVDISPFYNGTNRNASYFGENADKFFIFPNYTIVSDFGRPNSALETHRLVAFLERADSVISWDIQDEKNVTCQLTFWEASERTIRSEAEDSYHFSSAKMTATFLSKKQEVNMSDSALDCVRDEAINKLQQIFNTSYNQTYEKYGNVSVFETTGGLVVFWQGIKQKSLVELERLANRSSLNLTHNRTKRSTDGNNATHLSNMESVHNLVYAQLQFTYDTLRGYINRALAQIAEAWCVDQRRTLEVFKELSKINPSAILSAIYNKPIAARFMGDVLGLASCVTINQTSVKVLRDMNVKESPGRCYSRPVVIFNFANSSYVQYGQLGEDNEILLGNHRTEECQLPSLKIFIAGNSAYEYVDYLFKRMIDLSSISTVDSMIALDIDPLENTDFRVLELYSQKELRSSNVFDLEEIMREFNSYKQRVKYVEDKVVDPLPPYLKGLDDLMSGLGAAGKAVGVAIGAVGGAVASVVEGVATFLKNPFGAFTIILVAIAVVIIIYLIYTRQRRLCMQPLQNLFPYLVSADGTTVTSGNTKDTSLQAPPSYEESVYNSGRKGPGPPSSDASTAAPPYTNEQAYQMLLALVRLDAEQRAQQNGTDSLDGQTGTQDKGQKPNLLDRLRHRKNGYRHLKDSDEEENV

[7] = molecular target: T2, synthetic gB peptide, Peptide 22 in Table 5 (human cytomegalovirus, AD169 strain, reading uncertain); assay: peptide array (SPOTs), dot blot
T2 construct: 12-mer of gB; also called peptide number 22
T2 peptide: YEYVDYLFKRMI-{cellulose membrane}

[8] = molecular target: T3, synthetic gB peptide, Peptide 7 in Table 5 (human cytomegalovirus, AD169 strain, reading uncertain); assay: peptide array (SPOTs), dot blot
T3 construct: 12-mer of gB; also called peptide number 7
T3 peptide: NVKESPGRCYSR-{cellulose membrane}

[9] = molecular target: T4, synthetic gB peptide, Peptide 3 in Table 5 (human cytomegalovirus, AD169 strain, reading uncertain); assay: peptide array (SPOTs), dot blot
T4 construct: also called peptide number 3
T4 peptide: SCVTINQTSVKV-{cellulose membrane}

[10] = molecular target: T5, synthetic gB peptide, Peptide 8 in Table 5 (human cytomegalovirus, AD169 strain, reading uncertain); assay: peptide array (SPOTs), dot blot
T5 construct: 12-mer of gB; also called peptide number 8
T5 peptide: SPGRCYSRPVVI-{cellulose membrane}

[11] = molecular target: T6, synthetic gB peptide, Peptide 21 in Table 5 (human cytomegalovirus, AD169 strain, reading uncertain); assay: peptide array (SPOTs), dot blot
T6 construct: 12-mer of gB; also called peptide number 21
T6 peptide: GNSAYEYVDYLF-{cellulose membrane}

[12] = molecular target: T1, glycoprotein gB of human …; assay: cell-based or functional assay; remark: listed apart in the source
[13] = molecular target: T7, GST-fused HCMV-AD1 (AD1 region of HCMV glycoprotein gB) (human cytomegalovirus, AD169 strain, UniProt F5HB53 485-651); assay: ELISA on solid-phased AD1
T7 construct: also called solid-phased AD1; AD1 antigen; not shown: glutathione S-transferase (GST) fusion partner
T7 sequence (F5HB53 485-651): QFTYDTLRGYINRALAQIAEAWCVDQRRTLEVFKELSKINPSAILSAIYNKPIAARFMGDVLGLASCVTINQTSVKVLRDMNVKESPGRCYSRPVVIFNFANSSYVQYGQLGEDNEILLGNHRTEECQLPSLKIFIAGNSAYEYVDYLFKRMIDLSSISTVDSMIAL

[14] = molecular target: T7, GST-fused HCMV-AD1 (AD1 region of HCMV …); assay: ELISA on solid-phased AD1 (5 µg/mL)
[15] = molecular target: T1, glycoprotein gB of human …; assay: cell-based or functional assay; remark: listed apart in the source

T1 sequence (P06473 32-906 limits assumed): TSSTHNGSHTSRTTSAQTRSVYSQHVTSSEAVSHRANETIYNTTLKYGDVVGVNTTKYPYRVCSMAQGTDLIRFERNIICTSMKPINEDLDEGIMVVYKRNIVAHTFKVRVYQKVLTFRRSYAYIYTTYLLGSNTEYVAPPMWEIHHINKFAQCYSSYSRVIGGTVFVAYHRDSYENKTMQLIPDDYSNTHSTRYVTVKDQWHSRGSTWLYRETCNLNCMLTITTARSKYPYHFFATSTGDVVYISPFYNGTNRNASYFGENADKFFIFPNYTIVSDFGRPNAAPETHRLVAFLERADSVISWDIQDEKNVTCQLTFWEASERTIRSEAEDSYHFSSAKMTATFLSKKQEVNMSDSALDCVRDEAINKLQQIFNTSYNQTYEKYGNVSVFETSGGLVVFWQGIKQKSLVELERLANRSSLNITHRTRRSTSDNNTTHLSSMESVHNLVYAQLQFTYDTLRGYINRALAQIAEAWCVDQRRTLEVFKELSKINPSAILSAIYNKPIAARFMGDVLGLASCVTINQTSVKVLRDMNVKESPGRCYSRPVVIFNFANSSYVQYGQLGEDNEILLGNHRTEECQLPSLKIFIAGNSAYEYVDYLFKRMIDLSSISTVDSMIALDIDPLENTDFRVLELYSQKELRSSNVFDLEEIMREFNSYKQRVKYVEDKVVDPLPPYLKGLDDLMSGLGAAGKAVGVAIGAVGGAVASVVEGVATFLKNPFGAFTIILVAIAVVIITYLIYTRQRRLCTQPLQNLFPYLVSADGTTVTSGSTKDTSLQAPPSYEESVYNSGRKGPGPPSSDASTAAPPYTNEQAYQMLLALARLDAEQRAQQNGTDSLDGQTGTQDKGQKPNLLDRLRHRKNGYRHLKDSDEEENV

B1: anti-AD1 antibody EV2038 (antibody, human IgG1, lambda, V domains shown)
VH: QVQLQQWGAGLLKPSETLSLTCAVYGGSFSGYYWGWIRQPPGKGLEWIGEINHSGSANSNPSLKSRVTMSVDTSKNQFSLKVSSVTAADTAVYFCARVTRDLEWIPGDYYMDVWGKGTTVTVSS
VL: QSVLTQPPSASGTPGQRVSISCSGSLSNIGTNYVYWYQQLPGTAPKLLIFKNNQRPSGVPDRFSGSKSGTSASLAISGLRSEDEADYYCAAWDDSLNGYVFGTGTKVTVLG
notes: complete human IgG1λ; also called EV2038 (original); anti-HCMV antibody (EV2038)
B1 was tested, and the “IC50 of plaque formation, HCMV AD169, fibroblast cell” value [1] was 0.027 µg/mL, the “IC50 of plaque formation, HCMV AD169, fibroblast cell (mol concentration)” value [1] was 0.18 nM and the “IC50 of plaque formation, clinical isolate MDU-1, epithelial cell” value [2] was 0.04 µg/mL. The “IC50 of plaque formation, clinical isolate MDU-1, fibroblast cell” value [2] was 0.044 µg/mL, the “IC50 of plaque formation, clinical isolate MDU-1, fibroblast cell (mol concentration)” value [2] was 0.29 nM and the “IC50 of plaque formation, clinical isolate T-137, fibroblast cell” value [3] was 0.07 µg/mL. For the same binder, the “IC50 of plaque formation, clinical isolate T-137, fibroblast cell (mol concentration)” value [3] was 0.47 nM, the “IC50 of plaque formation, HCMV Davis, fibroblast cell” value [4] was 0.037 µg/mL and the “IC50 of plaque formation, HCMV Davis, fibroblast cell (mol concentration)” value [4] was 0.25 nM. The “IC50 of plaque formation, HCMV Merlin, fibroblast cell” value [5] was 0.012 µg/mL, the “IC50 of plaque formation, HCMV Merlin, fibroblast cell (mol concentration)” value [5] was 0.08 nM and the “IC50 of plaque formation, HCMV Towne, fibroblast cell” value [6] was 0.025 µg/mL. For the same binder, the “IC50 of plaque formation, HCMV Towne, fibroblast cell (mol concentration)” value [6] was 0.17 nM, the binding result [7] was “binds” and the binding result [8] was “binds”. B1: binds [9]; binds [10]; binds [11]. The “IC50 of neutralisation of HCMV AD169 infection of MRC-5 cells (IE1 immunostaining), with complement (Cp+)” value [12] was 0.58 µg/mL and the “IC50 of neutralisation of HCMV AD169 infection of MRC-5 cells (IE1 immunostaining), without complement (Cp-)” value [12] was 0.57 µg/mL.

B2: EV2038 CDR-H3 deletion variant E122del (antibody, V domains shown)
VH: QVQLQQWGAGLLKPSETLSLTCAVYGGSFSGYYWGWIRQPPGKGLEWIGEINHSGSANSNPSLKSRVTMSVDTSKNQFSLKVSSVTAADTAVYFCARVTRDLWIPGDYYMDVWGKGTTVTVSS
VL: B1 VL
notes: original EV2038 L-chain
B2: no binding [13].

B3: EV2038 CDR-H3 insertion variant G126_D127insE (antibody, V domains shown)
VH: QVQLQQWGAGLLKPSETLSLTCAVYGGSFSGYYWGWIRQPPGKGLEWIGEINHSGSANSNPSLKSRVTMSVDTSKNQFSLKVSSVTAADTAVYFCARVTRDLEWIPGEDYYMDVWGKGTTVTVSS
VL: B1 VL
notes: original EV2038 L-chain
B3: no binding [13].

B4: EV2038 CDR-H3 variant P125F (antibody, V domains shown)
VH: B1 VH with P106F
VL: B1 VL
notes: original EV2038 L-chain
B4: no binding (tested: 1 µg/mL, dilution series) [14].

B5: EV2038 CDR-H3 variant P125S (antibody, V domains shown)
VH: B1 VH with P106S
VL: B1 VL
notes: original EV2038 L-chain
B5: no binding (tested: 1 µg/mL, dilution series) [14].

B6: EV2038 CDR-H3 variant P125W (antibody, V domains shown)
VH: B1 VH with P106W
VL: B1 VL
notes: original EV2038 L-chain
B6: no binding (tested: 1 µg/mL, dilution series) [14].

B7: EV2038 CDR-H3 variant P125L (antibody, V domains shown)
VH: B1 VH with P106L
VL: B1 VL
notes: original EV2038 L-chain
B7: no binding (tested: 1 µg/mL, dilution series) [14].

B8: EV2038 CDR-H3 variant P125A (antibody, V domains shown)
VH: B1 VH with P106A
VL: B1 VL
notes: original EV2038 L-chain
B8: no binding (tested: 1 µg/mL, dilution series) [14].

B9: EV2038 CDR-H3 variant P125R (antibody, V domains shown)
VH: B1 VH with P106R
VL: B1 VL
notes: original EV2038 L-chain
B9: no binding (tested: 1 µg/mL, dilution series) [14].

B10: EV2038 CDR-H3 variant P125Y (antibody, V domains shown)
VH: B1 VH with P106Y
VL: B1 VL
notes: original EV2038 L-chain
B10: no binding (tested: 1 µg/mL, dilution series) [14].

B11: EV2038 CDR-H3 variant P125E (antibody, V domains shown)
VH: B1 VH with P106E
VL: B1 VL
notes: original EV2038 L-chain
B11: no binding (tested: 1 µg/mL, dilution series) [14].

B12: EV2038 CDR-H3 variant I124V (antibody, V domains shown)
VH: B1 VH with I105V
VL: B1 VL
With B12 the “50% inhibition concentration (IC50) of HCMV infection (immunostaining method of Abai et al.)” value [15] was 0.45 µg/mL.

B13: EV2038 CDR-H3 variant P125I (antibody, V domains shown)
VH: B1 VH with P106I
VL: B1 VL
notes: original EV2038 L-chain
B13: no binding (tested: 1 µg/mL, dilution series) [14].

B14: EV2038 CDR-H3 variant P125G (antibody, V domains shown)
VH: B1 VH with P106G
VL: B1 VL
notes: original EV2038 L-chain
B14: no binding (tested: 1 µg/mL, dilution series) [14].

B15: EV2038 CDR-H3 variant P125Q (antibody, V domains shown)
VH: B1 VH with P106Q
VL: B1 VL
notes: original EV2038 L-chain
B15: no binding (tested: 1 µg/mL, dilution series) [14].

B16: EV2038 CDR-H3 variant P125K (antibody, V domains shown)
VH: B1 VH with P106K
VL: B1 VL
notes: original EV2038 L-chain
B16: no binding (tested: 1 µg/mL, dilution series) [14].

B17: EV2038 CDR-H3 variant P125M (antibody, V domains shown)
VH: B1 VH with P106M
VL: B1 VL
notes: original EV2038 L-chain
B17: no binding (tested: 1 µg/mL, dilution series) [14].

B18: EV2038 CDR-H3 variant P125N (antibody, V domains shown)
VH: B1 VH with P106N
VL: B1 VL
notes: original EV2038 L-chain
B18: no binding (tested: 1 µg/mL, dilution series) [14].

B19: EV2038 CDR-H3 variant I124D (antibody, V domains shown)
VH: B1 VH with I105D
VL: B1 VL
notes: original EV2038 L-chain
B19: no binding [13].

B20: EV2038 CDR-H3 variant P125T (antibody, V domains shown)
VH: B1 VH with P106T
VL: B1 VL
notes: original EV2038 L-chain
B20: no binding (tested: 1 µg/mL, dilution series) [14].

B21: EV2038 CDR-H3 variant P125H (antibody, V domains shown)
VH: B1 VH with P106H
VL: B1 VL
notes: original EV2038 L-chain
B21: no binding (tested: 1 µg/mL, dilution series) [14].

B22: EV2038 CDR-H3 variant P125C (antibody, V domains shown)
VH: B1 VH with P106C
VL: B1 VL
notes: original EV2038 L-chain
B22: no binding (tested: 1 µg/mL, dilution series) [14].

B23: EV2038 CDR-H3 variant P125V (antibody, V domains shown)
VH: B1 VH with P106V
VL: B1 VL
notes: original EV2038 L-chain
B23: no binding (tested: 1 µg/mL, dilution series) [14].

B24: EV2038 CDR-H3 variant P125D (antibody, V domains shown)
VH: B1 VH with P106D
VL: B1 VL
notes: original EV2038 L-chain
B24: no binding (tested: 1 µg/mL, dilution series) [14].

B25: EV2038 CDR-H3 variant V132K (antibody, V domains shown)
VH: B1 VH with V113K
VL: B1 VL
B25 was tested, and the “50% inhibition concentration (IC50) of HCMV infection (immunostaining method of Abai et al.)” value [15] was 1.2 µg/mL.
